Test results: the supplement of paper PMC9170038

Tested on: MS2 coat protein
Experiment: apparent KD of MS2 coat protein; designed switch direction (-1 OFF switch, 1 ON switch): -1; higher = weaker reporter binding
Procedure, shortened: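 RNA switches sharing common flanks were transcribed by stalled E. coli RNA polymerase on Illumina chips. A doubling series of SNAP-549-labelled MS2 coat protein, from 0.7 or 1.5 nM to 3 µM, was applied in Tris-HCl pH 7.5 buffer with KCl, MgCl2, BSA, DTT, tRNA and Tween-20. Each step lasted 0.8–1.5 h at the bottom of the series and 10–20 min at the top. Normalised cluster fluorescence was curve-fitted, giving apparent KD as the per-design median over clusters.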

[1] = Eterna round: R95, input ligand: FMN 200 uM
[2] = Eterna round: R95, input ligand: microRNA oligo, concentration not stated
[3] = Eterna round: R95, input ligand: none
[4] = input ligand: microRNA oligo, concentration not stated

Row | Sequence | apparent KD of MS2 coat protein (input ligand: FMN 200 uM) | apparent KD of MS2 coat protein (input ligand: none) | apparent KD of MS2 coat protein [1] | apparent KD of MS2 coat protein [2] | apparent KD of MS2 coat protein [3] | apparent KD of MS2 coat protein [4]
1 | CCUCGGUCAGGAUAUGGGCCAUGCGAUGAUGAAGCCUGGCGCCAGAAGGGACAUGAGGAUCACCCAUGUCCGUA [Eternabot (Original) Solution 37] (Eterna round: R97, puzzle: Exclusion 4) | 71.3 nM | 17.2 nM |  |  |  | 
2 | AGAAGACAUGAGGAUCACCCAUGUAAGGAUAUUGGAGGUUAGGGAUGCUGGAGUUGGGCAAGAAGGUACAGGUG [JR_Exclu1_Sub092] (puzzle: Exclusion 1) |  |  | 46.9 nM | 49.8 nM | 81 nM | 
3 | CAUACUCAAGUCAGGAUAUGCAGUCGAAUACGGGUGUAGAAGGGACAUGAGGAUCACCCAUGUAGAGAGUAAAG [EX-4 Malc #21] (puzzle: Brourd's mod of Exclusion 4) |  |  | 99.8 nM | 36.8 nM | 51.1 nM | 
4 | UAUAUAUAGUAAGGAUAUGUAUUAAUGUUAUAAACAGAAGGUACUGACAUGAGGAUCACCCAUGUUUUAGUGUGGGCAUGUAGA [JMF's solution 78] (Eterna round: R96, puzzle: Exclusion NG 1) |  |  |  |  |  | 73.8 nM
5 | GAAAUACAUGAGGAUCACCCAUGUGAGGAUAUGCUAUGGAAAUAAAAAAUAAAACAUAGCAGAAGGUACAAAAG [Mat - Exclusion 1 - Eli mod - D43] (Eterna round: R96, puzzle: Exclusion 1) |  |  |  |  |  | 50.9 nM
6 | AUUAUGUUAGGAUAUUAUUUGCCCUACUAAGGCACGAGAAGUAAGAAGGGACAUGAGGAUCACCCAUGUUGGAG [Eternabot (L2) Solution 71] (Eterna round: R97, puzzle: Exclusion 4) | 30.3 nM | 42.7 nM |  |  |  | 
7 | CUCGGCUAAGGAUAUGCAUAGCGGGCCAAGUCUUCUCAAGUACAUGAGGAUCACCCAUGUAGAAGGUAGUUAAC [EX2 B.29] (Eterna round: R97, puzzle: Exclusion 2) | 22.4 nM | 24.5 nM |  |  |  | 
8 | ACAAGCUUUUUGCUCGUCUACAUGAGGAUCACCCAUGUAGUGAGAUAGUGGUGAAGAUAGAAUGAGCGUAGUAGGUA [JR_SV3TOV1_Sub070] (puzzle: Sensor v3, turn-off variant 1) |  |  | 14.5 nM | 34.1 nM | 10.2 nM | 
9 | UCUUACUGAGGAUAUACUUAGAUUUACAUGAGGAUCACCCAUGUUCCUCUAUGUAUAUAUGUAGAAGGCAGAAGAA [Mat - Exclusion 5 - JL Mod - D46] (Eterna round: R97, puzzle: Exclusion 5) | 241 nM | 37.1 nM |  |  |  | 
10 | UUAUAGUAUGUAGGAUAUCGGUCAGUUUCUGAUCGAGAAGGACAUGAGGAUCACCCAUGUAAGGCUACCGGUUUCUGGUGGCCU [JL ENG1 3.52] (Eterna round: R96, puzzle: Exclusion NG 1) | 94.4 nM | 20.9 nM |  |  |  | 18.5 nM
11 | CAGGACUUAGGAUAUCAUGUGCGAGACAUGAGGAUCACCCAUGUAGGAAGCCGUCGCGGGUGAGAAGGAGGGCGAU [Exclusion 5 S1] (puzzle: Exclusion 5) |  |  | 266 nM | 277 nM | 366 nM | 
12 | GGUGGACAUGAGGAUCACCCAUGUGAGGAUAUCGGCUGGUACGUGUUGGCUGGCAUCUCGAGAAGGCACAUAGU [Exclusion 1 V61] (puzzle: Exclusion 1) |  |  |  | 58.8 nM |  | 
13 | CAAUAUUAUCGAGGAUAUCCUAUUGUAUUUCUGGGAGAAGGCGGACUCAACAUGAGGAUCACCCAUGUAAGACGGGUACUAGAU [Ex NG1 #20] (Eterna round: R96, puzzle: Exclusion NG 1) | 119 nM | 98.5 nM |  |  |  | 81 nM
14 | GCCCGGCCUGUAGGAUAUGGUUCCGUUUCGGUUCCAGAAGGACACGAGGAUACAUGAGGAUCACCCAUGUGCUCGUCACCGGGC [salish99_ExNG1_r04_403] (Eterna round: R96, puzzle: Exclusion NG 1) | 8.67 nM | 11.3 nM |  |  |  | 8.6 nM
15 | AGUAUGCGGCAGGAUAUCCAUCCGCGGUAAGGUGGAGAAGGGCUGACAUGAGGAUCACCCAUGUGCGUCCUGUA [salish99_ex6_r4_028] (Eterna round: R97, puzzle: Exclusion 6) | 31.9 nM | 19.9 nM |  |  |  | 
16 | GGUCAUCAAGUCAGGAUAUCGUCUGGUCGGUCUGGCGAGAAGGGACAUGAGGAUCACCCAUGUCGACUCAUCAG [Ex4 #11] (Eterna round: R97, puzzle: Brourd's mod of Exclusion 4) | 29.2 nM | 17.6 nM |  |  |  | 
17 | UUUAAUUUUUUUUUUUUACAAGCUUUUUGCUCGUCUUAUACAUGAGGAUCACCCAUGUAAGUGGGAAGUAAAUUAUC [JMF 54] (puzzle: Sensor v3, turn-off variant 2) |  |  | 48.3 nM | 184 nM | 83.8 nM | 

Row | Sequence | apparent KD of MS2 coat protein (input ligand: FMN 200 uM) | apparent KD of MS2 coat protein (input ligand: none) | apparent KD of MS2 coat protein [1] | apparent KD of MS2 coat protein [2] | apparent KD of MS2 coat protein [3] | apparent KD of MS2 coat protein [4]
18 | GGCAUGUGAGGAUAUGUACCUGAGUGCUUUGCGCUCAGGAAACAGAAGGCACAUGAGGAUCACCCAUGUGAUAA [jl-ex4-4.49 ViennaUCT mod] (Eterna round: R97, puzzle: Exclusion 4) | 67.7 nM | 710 nM |  |  |  | 
19 | GAUCAUGCAGGAUAUACAUGGAACAUUAAAUCAUGAAUUCUACAUGAGGAUCACCCAUGUAGAAGGGCAUGAUC [Omei Ex2 A17] (Eterna round: R97, puzzle: Exclusion 2) | 169 nM | 72.1 nM |  |  |  | 
20 | ACCCAACAUGAGGAUCACCCAUGUCAGGAUAUCCUCGGGAAACCAAAAGAGGAGCCGAGGAGAAGGGACAGAGG [ChP 04-04-2015 #5] (puzzle: Exclusion 1) |  |  | 124 nM | 233 nM | 227 nM | 
21 | GCGGGCUUUUUGCUCGUUUACAUGAGGAUCACCCAUGUGUCUUCGCGCCCGGGCCCGGGCGGGCCCGGGCCCGGGCG [-52.3, -76.4, A 8%] (Eterna round: R97, puzzle: Sensor, turn-off variant 1) | 36.1 nM | 41.5 nM |  |  |  | 
22 | UUUUACUCAGGAUAUAUGAUGUGAAACAUGAGGAUCACCCAUGUAAUAUUAUGGAUGUAAAUAGAAGGGAGAUUUU [Mat - Exclusion 5 - JL mod - D17] (puzzle: Exclusion 5) |  |  | 58.8 nM | 62.3 nM | 78.4 nM | 
23 | AUUGUAUAGGAAGGAUAUAGAAUAUUAUUUUAACAUGAGGAUCACCCAUGUAACCUUAUGUGUAGCUAGAAGGUCCAUUUAUUA [Title] (Eterna round: R96, puzzle: Exclusion NG 2) |  |  |  |  |  | 90.2 nM
24 | UUUUUUUAUGAAGGAUAUACUUAACAUGAGGAUCACCCAUGUGGUGUUGUGAGUGAGUGAGUUUAGUAGAAGGUCAAUUAUUUU [JMF's solution 23] (Eterna round: R96, puzzle: Exclusion NG 2) | 412 nM | 334 nM |  |  |  | 379 nM
25 | GGAGAGGCAGGAUAUACAUGAGGAUCACCCAUGUGAGCGAGGAGAACGAGCAAGAGAGGUAGAAGGGCCGGGAG [AK-MS2ROC-r4-exclusion3-27] (Eterna round: R97, puzzle: Exclusion 3) | 46.5 nM | 44.9 nM |  |  |  | 
26 | GGAUAUCGAGGAUAUACAUGAGGAUCACCCAUGUUGAAUCCGUGGGAUGGCCGACGAUGUAGAAGGUGACUCAU [Eternabot (Original) Solution 27] (Eterna round: R97, puzzle: Exclusion 3) | 134 nM | 232 nM |  |  |  | 
27 | UAACAUGUCUGAGGAUAUCUGCACGUGUAGUGCAGAGAAGGCAGAACAUGAGGAUCACCCAUGUAGAUCAUUAAUUAAUUAAUU [ENG1/7-B3] (Eterna round: R96, puzzle: Exclusion NG 1) | 765 nM | 478 nM |  |  |  | 337 nM
28 | CAGUACUGAGGAUAUACAUGAGGAUCACCCAUGUGUGUGAGUUUUGUAUGAAUGUUAUGUAGAAGGCGGUGCUG [JR_Ex3_Sub034] (Eterna round: R97, puzzle: Exclusion 3) | 285 nM | 504 nM |  |  |  | 
29 | UUUUGACAAGCGAGAUCCUACAUGAGGAUCACCCAUGUAGACCAUGGUUUCCAUGGUCUUUUUGCUCGUCUUGUGUG [jl TITIN mod 5] (Eterna round: R97, puzzle: Sensor, turn-off variant 1) | 23.2 nM | 23.4 nM |  |  |  | 
30 | GAGUAGUAAGGAUAUGUCUCUGGUGGCUUCGGUCACUAGAGGCAGAAGGUACAUGAGGAUCACCCAUGUUCCUC [ExDelusion 7 - Jieux - Exclusion 4] (Eterna round: R97, puzzle: Exclusion 4) | 220 nM | 55.2 nM |  |  |  | 
31 | AUAAAUCAUGUAGGAUAUGCGUAGCGAAGCUAUGCAGAAGGACAUGAGGAUCACCCAUGUCUUUCCGUCUGCGUACAGACGGAA [Mat - Exclusion NG 1 - Mod of JL - D42] (Eterna round: R96, puzzle: Exclusion NG 1) | 149 nM | 24.1 nM |  |  |  | 20.1 nM
32 | GGGCCCGGUGUGAGGAUAUGUGAUCGGAAAUGAUCGUAGAAGGCACAUGAGGAUCACCCAUGUAAGCCGGGCCC [-31.3, -29.2 kcal, A 26%, 2-0] (Eterna round: R97, puzzle: Brourd's mod of Exclusion 4) | 34.2 nM | 289 nM |  |  |  | 
33 | GCCAGAUCAGGAUAUCUAAUAUAUCACAUGAGGAUCACCCAUGUCCAGCGAAAGCUGGAGGGAGAAGGGAUCUGGC [Mat - Exclusion 5 - Eli mod - D102] (puzzle: Exclusion 5) |  |  | 39.8 nM | 79.8 nM | 48.2 nM | 
